Source: patent US12655198B2

Target: alcohol dehydrogenase (ADH)

- ADH aggregation (optical density at 360 nm, 48° C., 2 h) (% decrease in ADH aggregation): 61
B1: CryS96 (αB-crystallin peptide fused with ELP S96) (protein)
chain: GDRFSVNLDVKHFSPEELKVKGVPGSGVPGSGVPGSGVPGSGVPGSGVPGSGVPGSGVPGSGVPGSGVPGSGVPGSGVPGSGVPGSGVPGSGVPGSGVPGSGVPGSGVPGSGVPGSGVPGSGVPGSGVPGSGVPGSGVPGSGVPGSGVPGSGVPGSGVPGSGVPGSGVPGSGVPGSGVPGSGVPGSGVPGSGVPGSGVPGSGVPGSGVPGSGVPGSGVPGSGVPGSGVPGSGVPGSGVPGSGVPGSGVPGSGVPGSGVPGSGVPGSGVPGSGVPGSGVPGSGVPGSGVPGSGVPGSGVPGSGVPGSGVPGSGVPGSGVPGSGVPGSGVPGSGVPGSGVPGSGVPGSGVPGSGVPGSGVPGSGVPGSGVPGSGVPGSGVPGSGVPGSGVPGSGVPGSGVPGSGVPGSGVPGSGVPGSGVPGSGVPGSGVPGSGVPGSGVPGSGVPGSGVPGSGVPGSGVPGSGVPGSGVPGSGVPGSGVPGSGVPGSGVPGSGVPGSGVPGSGY
